Results published in publication PMC6646356, “The AAA + ATPase TorsinA polymerizes into hollow helical tubes with 8.5 subunits per turn” (Nature Communications, 2019).

Tests used:
[1] = biological target: the molecule itself; assay: SEC; gel filtration of affinity-purified MBP-TorsinA; self-association, elution in the void volume
[2] = biological target: the molecule itself; assay: negative-stain electron microscopy; purified TorsinA variants without liposomes, diluted in ATP-containing buffer (HEPES/NaOH pH 8.0, NaCl, 10 mM MgCl2, ATP), 2% uranyl acetate stain; filament formation (self-polymerisation); MBP tag uncleaved or cleaved with 3C protease

B1: MBP-TorsinA (human TorsinA residues 51–332, N-terminally MBP-tagged) (domain or fragment, UniProt O14656 51-332, looked up)
chain: GQKRSLSREALQKDLDDNLFGQHLAKKIILNAVFGFINNPKPKKPLTLSLHGWTGTGKNFVSKIIAENIYEGGLNSDYVHLFVATLHFPHASNITLYKDQLQLWIRGNVSACARSIFIFDEMDKMHAGLIDAIKPFLDYYDLVDGVSYQKAMFIFLSNAGAERITDVALDFWRSGKQREDIKLKDIEHALSVSVFNNKNSGFWHSSLIDRNLIDYFVPFLPLEYKHLKMCIRVEMQSRGYEIDEDIVSRVAEEMTFFPKEERVFSDKGCKTVFTKLDYYYDD
notes: TorsinA, human, residues 51-332; MBP tag is cleavable by human rhinovirus 3C protease; uncleaved in this form; Forms helical polymers of no fixed size; also called MBP-tagged TorsinA; wild-type; source: E. coli LOBSTR(DE3) RIL, purified (amylose resin); not shown: MBP, N-terminal, kept
binding result [1]: binds

B2: TorsinA H140N (domain or fragment, human, UniProt O14656 51-332, looked up)
chain: GQKRSLSREALQKDLDDNLFGQHLAKKIILNAVFGFINNPKPKKPLTLSLHGWTGTGKNFVSKIIAENIYEGGLNSDYVHLFVATLHFPNASNITLYKDQLQLWIRGNVSACARSIFIFDEMDKMHAGLIDAIKPFLDYYDLVDGVSYQKAMFIFLSNAGAERITDVALDFWRSGKQREDIKLKDIEHALSVSVFNNKNSGFWHSSLIDRNLIDYFVPFLPLEYKHLKMCIRVEMQSRGYEIDEDIVSRVAEEMTFFPKEERVFSDKGCKTVFTKLDYYYDD
notes: TorsinA, human, residues 51-332; source: E. coli LOBSTR(DE3) RIL, purified (amylose resin)
binding result [2]: binds

B3: TorsinA (human, residues 51–332), MBP cleaved with 3C protease (domain or fragment, UniProt O14656 51-332, looked up)
chain: GQKRSLSREALQKDLDDNLFGQHLAKKIILNAVFGFINNPKPKKPLTLSLHGWTGTGKNFVSKIIAENIYEGGLNSDYVHLFVATLHFPHASNITLYKDQLQLWIRGNVSACARSIFIFDEMDKMHAGLIDAIKPFLDYYDLVDGVSYQKAMFIFLSNAGAERITDVALDFWRSGKQREDIKLKDIEHALSVSVFNNKNSGFWHSSLIDRNLIDYFVPFLPLEYKHLKMCIRVEMQSRGYEIDEDIVSRVAEEMTFFPKEERVFSDKGCKTVFTKLDYYYDD
notes: TorsinA, human, residues 51-332; Helical polymer, 8.5 subunits per turn; nucleotide modeled as ATP; also called TorsinA filaments; TorsinA polymers; source: E. coli LOBSTR(DE3) RIL, purified (amylose resin), MBP cleaved with 3C protease during dialysis; not shown: MBP, N-terminal, cleaved
binding result [2]: binds

B4: TorsinA K174A (domain or fragment, human, UniProt O14656 51-332, looked up)
chain: GQKRSLSREALQKDLDDNLFGQHLAKKIILNAVFGFINNPKPKKPLTLSLHGWTGTGKNFVSKIIAENIYEGGLNSDYVHLFVATLHFPHASNITLYKDQLQLWIRGNVSACARSIFIFDEMDAMHAGLIDAIKPFLDYYDLVDGVSYQKAMFIFLSNAGAERITDVALDFWRSGKQREDIKLKDIEHALSVSVFNNKNSGFWHSSLIDRNLIDYFVPFLPLEYKHLKMCIRVEMQSRGYEIDEDIVSRVAEEMTFFPKEERVFSDKGCKTVFTKLDYYYDD
notes: as for B2
binding result [2]: binds

B5: TorsinA K174E (domain or fragment, human, UniProt O14656 51-332, looked up)
chain: GQKRSLSREALQKDLDDNLFGQHLAKKIILNAVFGFINNPKPKKPLTLSLHGWTGTGKNFVSKIIAENIYEGGLNSDYVHLFVATLHFPHASNITLYKDQLQLWIRGNVSACARSIFIFDEMDEMHAGLIDAIKPFLDYYDLVDGVSYQKAMFIFLSNAGAERITDVALDFWRSGKQREDIKLKDIEHALSVSVFNNKNSGFWHSSLIDRNLIDYFVPFLPLEYKHLKMCIRVEMQSRGYEIDEDIVSRVAEEMTFFPKEERVFSDKGCKTVFTKLDYYYDD
notes: as for B2
binding result [2]: binds
